For test [1], the target named is T1, Prefoldin from Pyrococcus horikoshii (PhPFD, α2β4 heterohexamer, 86.4 kDa) (Pyrococcus horikoshii, UniProt O58263 1-148; O58268 1-117, S98G).
T1 construct: Prefoldin α-subunit, Pyrococcus horikoshii, with the point mutation S98G; Prefoldin β-subunit, Pyrococcus horikoshii; Used unlabelled (NMR titration, BLI, EM, ThT assays) and, for the PRE experiments, highly deuterated with 15N or 13CH3 labels on either the α- or the β-subunit; also called archaeal prefoldin; source: E. coli BL21 (DE3), α- and β-subunit from separate pET23c plasmids, purified …
T1 sequence 1: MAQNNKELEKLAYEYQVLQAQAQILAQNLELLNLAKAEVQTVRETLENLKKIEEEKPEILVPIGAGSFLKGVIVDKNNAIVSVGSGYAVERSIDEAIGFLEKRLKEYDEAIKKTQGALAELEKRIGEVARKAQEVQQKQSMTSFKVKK
T1 sequence 2: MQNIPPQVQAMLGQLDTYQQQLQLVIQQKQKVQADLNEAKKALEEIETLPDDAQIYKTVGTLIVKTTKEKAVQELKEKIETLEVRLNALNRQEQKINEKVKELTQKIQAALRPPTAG
The experiment in a line: NMR titration; unlabeled PhPFD added to 29 µM U-[15N]-IAPP, ratios 1:0 to 1:8; 2D 15N-SOFAST-HMQC at 30 °C; 25 mM MES/NaOH (pH 6.5), 25 mM MgCl2; TITAN global lineshape fitting, two-state model assuming 1:1 stoichiometry; apparent. Conditions: both partners purified.

For test [2], the target named is T1, Prefoldin from Pyrococcus horikoshii …. In words: BLI; biotinylated monomeric IAPP immobilised on Super Streptavidin biosensors, quenched with biotin; PhPFD 0.5 µM to 150 µM in solution; room temperature; 50 mM MES/NaOH (pH 6.5), 25 mM MgCl2; steady state analysis. Conditions: both partners purified. (BLI is a label-free optical method that tracks binding on a fibre tip over time.)

Positions of bridges follow the written chain, without caps; N, C: chain ends. No end group written: not given here. *: point of attachment. Biotin = O=C1N[C@H]2[C@H](CS[C@H]2CCCCC(=O)*)N1; βAla = NCCC(=O)O

The results in this text go back to PMC9061850, “Structural basis for the inhibition of IAPP fibril formation by the co-chaperonin prefoldin” (Nature Communications, 2022).

B1: U-[15N]-labeled recombinant human IAPP (non-amidated), monomeric (peptide)
peptide: KCNTATCATQRLANFLVHSSNNFGAILSSTNVGSNTY-OH
modifications: ends and bridges not checked; also: U-[15N] isotope label
notes: Human islet amyloid polypeptide (IAPP, amylin); numbers count on: the mature protein; also called U-[15N]-IAPP; monomeric IAPP; source: preparative RP-HPLC as final step
Turning to B1, in test [1], the Kd was found to be 61 µM and the koff (in general, the rate constant with which the complex falls apart) was about 6000 s⁻¹.

B2: biotinylated IAPP (biotinyl-[β-Ala]-[β-Ala]-IAPP-NH2), monomeric (peptide)
peptide: {Biotin-βAla-βAla}-KCNTATCATQRLANFLVHSSNNFGAILSSTNVGSNTY-NH2
modifications: disulfide 2-7
SMILES: CC[C@H](C)[C@H](NC(=O)[C@H](C)NC(=O)CNC(=O)[C@H](Cc1ccccc1)NC(=O)[C@H](CC(N)=O)NC(=O)[C@H](CC(N)=O)NC(=O)[C@H](CO)NC(=O)[C@H](CO)NC(=O)[C@H](Cc1c[nH]cn1)NC(=O)[C@@H](NC(=O)[C@H](CC(C)C)NC(=O)[C@H](Cc1ccccc1)NC(=O)[C@H](CC(N)=O)NC(=O)[C@H](C)NC(=O)[C@H](CC(C)C)NC(=O)[C@H](CCCNC(=N)N)NC(=O)[C@H](CCC(N)=O)NC(=O)[C@@H](NC(=O)[C@H](C)NC(=O)[C@@H]1CSSC[C@H](NC(=O)[C@H](CCCCN)NC(=O)CCNC(=O)CCNC(=O)CCCC[C@@H]2SC[C@@H]3NC(=O)N[C@@H]32)C(=O)N[C@@H](CC(N)=O)C(=O)N[C@@H]([C@@H](C)O)C(=O)N[C@@H](C)C(=O)N[C@@H]([C@@H](C)O)C(=O)N1)[C@@H](C)O)C(C)C)C(=O)N[C@@H](CC(C)C)C(=O)N[C@@H](CO)C(=O)N[C@@H](CO)C(=O)N[C@H](C(=O)N[C@@H](CC(N)=O)C(=O)N[C@H](C(=O)NCC(=O)N[C@@H](CO)C(=O)N[C@@H](CC(N)=O)C(=O)N[C@H](C(=O)N[C@@H](Cc1ccc(O)cc1)C(N)=O)[C@@H](C)O)C(C)C)[C@@H](C)O
notes: Human islet amyloid polypeptide (IAPP, amylin), 37 residues; numbers count on: the mature protein; Molecular mass 4271.9 Da, purity 99.2%; also called monomeric biotinylated IAPP; source: synthetic peptide (custom synthesized, Pepscan, Lelystad); not shown: biotin, N-terminal, kept
On to B2, for which the Kd in test [2] came out at 11 ± 1.2 µM.
